In the RNAGym collection of RNA variant scans (doi:10.1073/pnas.2313332121):

B1: TPR t1 (parent)
chain: GACCAAUCUGCCCUCAGAGCUCGAGAACAUCUUCGGAUGCAGAGGAGGCAGGCUUCGGUGGCGCGAUAGCGCCAACGUCCUCAACCUCCAAUGCAUCCCACCACAUGAUGAUGCCUGAAGAGCCUUGGUUUUUUG

Variants of: B1
Experiment: polymerase ribozyme fitness, log enrichment relative to wild type (log ratio); higher = more active; in vitro selection for triplet polymerase activity
Procedure, shortened: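 Mutant libraries were PCR-built and transcribed for each subunit of a heterodimeric triplet polymerase ribozyme and selected for one round in triplicate at −7 °C, frozen, before gel excision of extended constructs and streptavidin-bead capture. Input and output libraries were Illumina-sequenced, keeping genotypes with ≥10 input reads and ≥1 read per output. Fitness is a logarithmic ratio of genotype to wild-type enrichment, in base 2, using inverse-variance-weighted replicate averages.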

Variant | polymerase ribozyme fitness (log ratio)
GACCAAUCUGCCCUUAGAGCUCGAGAACAUCUUCGGAUGCAGAUGAGGCAGGCUUCGGUGGCGCGAUAGCCCCAACGUCCUCAACCUCCAAUGCAUCCCACCACAUGAUGAUGCCUGAAGAGCCUUGGUUUUUUG [C15U G44U G71C] | -2.64
GACCAAUCUGCCCUUAGAGCUCGAGAACAUCUUCGGAUGCAGAGGAGGCAGGCUUCGGUGGCGCGAUAGCGCCAACGUGCUCAACCUCCAAUGCAUCUCACCACAUGAUGAUGCCUGAAGAGCCUUGGUUUUUUG [C15U C79G C98U] | -4.8
GACCAAUCUGCCCUUAGAGCUCGAGAACAUCUUCGGAUGCAGAUGAGGCAGGCUUCGGUGGCGCGAUAGCGCCAACGUCCUCAACCUCCAAUGCAUCCCACCACAUGAUGAUGCCUGAAGAGCCUUGGUUUUUUG [C15U G44U] | -2.59
GACCAAUCUGCCCUUAGAGCUCGAGAACAUCUUCGAAUGCAGAGGAGGCAGGCUUCGGUGGCGCGAUAGCGCCAACGUCCUCAACCUCCAAUGCAUCCCACCACAUGAUGAUGCCUGAAGAGCCUUGGUUUUUUG [C15U G36A] | -1.76
GACCAAUCUGCCCUUAGAGCUCGAGAACAUCUUCGGAUGCAGAGGAGGCAGGCUUCGGUGGCGCGAUAGCGCCAACGUCCUGAACCUCCAAUGCAUCCCACCACAUGGUGGUGCCUGAAGCGCCUUGGUUUUUUG [C15U C82G A108G A111G A121C] | -6.58
GACCAAUCUGCCCUUAGAGCUCAAGAACAUCUUCGGAUGCAGAGGAGGCAGGCUUCGGUGGCGCGAUAGCGCCAACGUCCUCAACCUCCAAUGCAUCCCACCACAUGAUGUUGCCUGAAGAGCCUUGGUUUUUUG [C15U G23A A111U] | -7.2
GACCAAUCUGCCCUUAGAGCUCGAGAACAUCUUCGGAUGCAGAGGAGGCAGGCUUCGGUGGCGCGGUAGCACCAACGUCCUCAACCUCCAAUGCAUCACACCACAUGAUGAUUCCUGAAGAGCCUUGGUUUUUUG [C15U A66G G71A C98A G113U] | -7.64
GACCAAUCUGCCCUUAGAGCUCGAGAACAUCUUCGGAUACAGAGGAGGCAGGCUUCGGUGGCGCGAUAGCGCCAACGUCCUCAACCUCCAAUGCAUCCCACCACAUGAUGAUGCCUCAAAAGCCUUGGUUUUUUG [C15U G39A G117C G120A] | -3.48
GACCAAUCUGCCCUUAGAGCUCGAGAACAUCUUCGGAUGCAGAGGAGGCAGGCUUAGGUGGCGCGAUACCGCCAACGCCCUCGACCUCCAAUGCAUCCCACCACAUGAUGACGCCAGAAGAGCCUUGGUUUUUUG [C15U C56A G69C U78C A83G U112C U116A] | -6.66
GACCAAUCUGCCCUUAGAGCUGGAGAACAUCUUCGGAUGCAGAGGAGGCAGGCUUCGGUGCCGCGAUAGCGCCAACGUCCUCAACCUCCAAUGCAUCCCACCACAUGAUGAUGGCUGAAGAGCCUUGGUUUUUUG [C15U C22G G61C C114G] | -7.09
GACCAAUCUGCCCUUAGAGCUCGAGAACAUCUUCGGAUGCAGAGCAAGCAGGUUUCGGAGGCGCGAUAGCGCCAACGUCCUCAACCUCCGAUGCAUCCCAUCACAUGAUGAUGCCUGAAGAGCCUUGGUUUUUUG [C15U G45C G47A C53U U59A A90G C101U] | -5.35
GACCAAUCUGCCCUUAGAGCUCGAGAACAUCUUCGGAUGCAGAAGAAGCAGGCUUCGGUGGCGCGAUAGCGCCAACGUCCUCAACCUCCAAUGCAUCCCACCACUUGAUGAUGCCUGAAGAGCCUUGGUUUUUUG [C15U G44A G47A A105U] | -5.8
GACCAAUCUGCCCUUAGAGCUCGAGAACAUCUUCGGAUGCAUACGAGGCAGGCUUCGGUGGCGCGAUAGCGCCAACGUCCUCAACCUCCAAUGUAUCCCACCACAUGAUGAUGCCUGAAGAGCCUUGGUUUUUUG [C15U G42U G44C C94U] | -3.39
GACCAAUCUGCCCUUAGAGCUCGAGAACAUCUUCGGAUCCAGAGGAGGCAGGCUUCGGUGGCGCGAUAGCACCAACGUCCUCAACCUCCAAUGCAUCCCACCACAUGAUGAUGCCUGAAGAGCCUUGGUUUUUUG [C15U G39C G71A] | -2.36
GACCAAUCUGCCCUUAGAGCUCGAGAACAUCUUCGGAUGCAGAGGAGGCAGGCUUGGGUGGCGCGAUAGCGCCAACGUCCUCAACCUCCCAUACAUCCCACCACAUGAUGAUGCCUUAAGAGCCUUAGUUUUUUG [C15U C56G A90C G93A G117U G127A] | -3.28
GACCAAUCUGCCCUUAGAGCUCGAGAACAUCUUCGGAUGCAGAGGAGGCAGGCUUCGGUGGCGCGAUAGCGCCAACGUCCUCAACCUCCAAUGCAUCCCACCACAUGAUGAUGCCUGAAGAGCGUUGGUUUUUUG [C15U C124G] | -0.245
GACCAAUCUGCCCUUAGAGCUCGAGAACAUCUUCGGAUGCACAGGAGGCAGGCUUCGGUGGCGCGAUAGCUCCAACGUCCUCAACCUCCAAUGCAUCCCACCACAUGAUGAUGCCUGAAGAGCCUUGGUUUUUUG [C15U G42C G71U] | -3.24
GACCAAUCUGCCCUUAGAGCUCGAGAACAUCUUCGGAUGCAGAGGAGGCAGGCUUCGGUGGCGCGAUAGCGCCAACGUCCUCAACCUCCAAUGCUUCCCACCACAUGAUGAUGCCUGAAGAGCCUUGGUUUUUUG [C15U A95U] | -2.49
GACCAAUCUGCCCUUAGAGCUCGAGAACAUCUUCGGAUGCACAGGAGGCAGGCUUCGGUGGCGCGAUAGCGCCAACGUCCUCAACCUCCAAUGCAUCCCACCACAUGAUGAUGCCUGAAGAGCCUUGGUUUUUUG [C15U G42C] | -2.79
GACCAAUCUGCCCUUAGAGCUCGAGAACAUCUUCGGAUGCAGAGGAGGCAGGCUUCGGUGGCGUGAUAGCGCCAACAUCCUCAACCUCCAAUCCAUCUCACCACAUGAUGAUGCCUGAAAAGCGUUGGUUUUUUG [C15U C64U G77A G93C C98U G120A C124G] | -1.82
GACCAAUCUGCCCUUAGAGCUCGAGAACAUCUUCGGAUGCAGAGGAGGCAGGCUUCGGUGGCGCGAUAGCGCCAACGUCCUCAACUUCCAAUGCAUCCCACAACAUGAUGAUGCCUGAAGAGCCUUGGUUUUUUG [C15U C86U C102A] | -4.01
